Results as given in paper PMC6054930 (Frontiers in Immunology, 2018).

Target: T1, hPD-L1-Fc (human, UniProt Q9NZQ7 19-238)
T1 construct: human programmed death-ligand 1 (PD-L1, CD274, B7-H1); also called programmed death-ligand 1; CD274; source: bought: tebu-bio/BPS Bioscience, #71104
Assay: ELISA; competitive: hPD-L1-Fc coated on the plate; test antibodies in presence of 1 µg/ml PD-1-Biotin or 0.5 µg/ml CD80-Biotin; detected with streptavidin-POD
Details: both partners purified

T1 sequence (Q9NZQ7 19-238): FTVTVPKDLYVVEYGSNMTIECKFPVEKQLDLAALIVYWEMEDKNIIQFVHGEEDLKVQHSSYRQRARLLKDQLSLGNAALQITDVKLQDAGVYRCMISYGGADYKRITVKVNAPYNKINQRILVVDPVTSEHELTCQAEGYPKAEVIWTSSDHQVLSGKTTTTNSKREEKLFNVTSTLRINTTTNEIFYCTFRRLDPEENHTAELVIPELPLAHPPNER

- binding result: binds
B1: CD80-Biotin (ligand, human, UniProt P33681 35-242, looked up)
chain: VIHVTKEVKEVATLSCGHNVSVEELAQTRIYWQKEKKMVLTMMSGDMNIWPEYKNRTIFDITNNLSIVILALRPSDEGTYECVVLKYEKDAFKREHLAEVTLSVKADFPTPSISDFEIPTSNIRRIICSTSGGFPEPHLSWLENGEELNAINTTVSQDPETELYAVSSKLDFNMTTNHSFMCLIKYGHLRVNQTFNWNTTKQEHFPDN
modifications: biotin
notes: The vendor's product may carry an Fc part; also called B7-1; soluble CD80; source: bought: tebu-bio/BPS Bioscience, #71114
